Assay results published in US12649783B2, “Anti-MCT1 antibodies and uses thereof” (IMMUNEXT INC., priority 2018, dated 2026).

Key:
[1] = test system: Tr1 cells; experiment: ex vivo Tr1 survival; assay type: cell-based, human
Protocol: Humanized NSG mice (treated with anti-MCT1) were sacrificed on d32 or other day specified, single cells suspensions were prepared from spleens, followed by bead-based enrichment of hCD3+ cells. Isolated cells were plated with the analytes (see above table) to access Tr1 survival: […]

[2] = target: T1, MCT1 (Homo sapiens, UniProt P53985); experiment: bromopyruvate toxicity assay (ATPlite); assay type: cell-based
T1 construct: HEK-293 WT cells only express MCT1/CD147 and no other MCTs as measured by RT-PCR; endogenous in cells; host or cells: HEK293T
T1 sequence (P53985 1-500): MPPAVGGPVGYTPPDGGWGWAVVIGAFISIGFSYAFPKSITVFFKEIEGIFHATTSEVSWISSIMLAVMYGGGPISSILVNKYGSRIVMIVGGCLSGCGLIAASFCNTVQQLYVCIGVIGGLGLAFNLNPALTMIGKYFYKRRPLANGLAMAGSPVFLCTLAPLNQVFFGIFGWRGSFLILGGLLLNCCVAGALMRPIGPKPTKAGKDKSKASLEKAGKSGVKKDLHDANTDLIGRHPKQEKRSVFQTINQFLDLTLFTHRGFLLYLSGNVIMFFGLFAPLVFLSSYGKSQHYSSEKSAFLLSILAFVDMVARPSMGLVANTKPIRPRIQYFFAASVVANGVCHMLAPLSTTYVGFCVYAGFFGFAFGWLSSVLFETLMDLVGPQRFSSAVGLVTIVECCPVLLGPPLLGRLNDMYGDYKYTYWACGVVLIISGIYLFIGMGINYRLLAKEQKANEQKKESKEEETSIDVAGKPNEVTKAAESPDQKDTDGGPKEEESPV
Protocol: Inhibition of bromopyruvate toxicity. Since MCT1 is the sole transporter necessary for the in vitro efficacy of the anti-cancer toxin bromopyruvate (Reference 66), a second cell-based functional assay was developed to measure the in vitro killing of cells using this toxin at a concentration of 150 μM.
HEK293T cells are pre-treated with anti-MCT1 antibody or small molecular MCT1 inhibitor at 37° C. for 1 hour. Cells are then incubated with a cytotoxic reagent 3-bromopyruvate (3-BrPy) at concentrations that rand from 25 to 500 μM for 2 to 6 hours. ATP from dying cells will be quantified using a commercial viability kit (ATPlite, PerkinElmer) in a 96-well plate and viability measured using luminescence. Reduction of ATP production indicates functionality of the antibody. A positive control antibody is the mouse or chimeric antibody before humanization. A negative control cell line is MCT1/CD147 double knockout 293T cells. Using this assay functional, i.e., antagonistic anti-MCT1 antibodies may be identified.

[3] = test system: human RBC lactate transport; experiment: FLIPR lactate transport in purified human RBCs; assay type: cell-based; details: 10 mM lactate
Protocol: MCT1 Ab1 and AZ3965 were used to inhibit MCT1 lactate transport in purified human RBCs using FLIPR based transport assays (REF. 1, 2) in the presence of 10 mM lactate. The levels of lactate transport were compared to a no lactate control condition and a no inhibitor condition in the presence of lactate.

[4] = test system: allogeneic activation / T cell proliferation; experiment: human mixed lymphocyte reaction (MLR); assay type: cell-based
Text: Human mixed lymphocyte reaction (MLR).
(§1) Inhibition of T cell proliferation, inflammatory cytokine production, and allogeneic activation. […] An anti-MCT1 antibody or antibody fragment of the invention may also be tested for its ability to inhibit the production of inflammatory cytokines, relative to controls, in stimulated T cells on day 3 post-stimulation. MCT1 Ab1As with CD3/CD28 activation, MCT1 Ab1 inhibited allogeneic activation by 50-60% in a human mixed lymphocyte reaction (see, e.g., FIG. 17).

[5] = test system: rabbit MCT1; experiment: flow cytometry binding to PBMCs, rabbit
Text: (§2) FIG. 12A-D show the cross-reactivity of MCT1 Ab1 as assessed via flow cytometry measurements of binding to MCT1 on the surface of different species' PBMCs.
(§3) Binding affinity and MCT1 cross-reactivity. […] MCT1 Ab1 is also highly cross-reactive with cynomolgus (cyno) and rabbit MCT1, but not with rodent MCT1 (FIG. 12A-D).

[6] = test system: xeno-GVHD; experiment: xeno-GvHD model with anti-MCT1 antibodies (human PBMC into NSG mice); assay type: in vivo, mouse
Protocol: In this model of GvHD animals male NSG mice are treated with sub-lethal irradiation (250 rad), and afterward these mice receive 2.5×10^6 of fresh human PBMC (day 0). First dose of anti-human MCT1 is combined with cells and injected i.v. The follow up treatment schedule is weekly (day 7, 14 and 21, IP).
For re-challenge experiments previously treated with anti-MCT1 (days 0, 7, 14, 21) NSG mice receive a second dose of 2.5×10^6 of previously frozen human PBMC of the same donor (day 42). Survival and weight loss of these mice is monitored with no additional antibody treatments and compared to a new cohort of NSG mice receiving same donor PBMCs.
100 ul of total blood is used for analysis: blood was stained using a Stain-1 wash protocol to allow absolute cell count with Ab panel below followed by FACS lysis buffer 1× (BD Bioscience, #349202); whole blood was incubated with a 10× antibody (shown below) and after 30 min, the blood was lysed in a large volume of 1× lysis buffer (at least 6 times) following manufacturer instructions; or blood was first lysed with ACK (10 min), washed in PBS and stained with antibody mix, exactly as described in the table below.

[7] = test system: cynomolgus MCT1; experiment: flow cytometry binding to PBMCs, cynomolgus
Text: as §2, §3

[8] = test system: CD4+ and CD8+ T cells; experiment: proliferation of CD4+ and CD8+ T cells; assay type: cell-based; details: different antibody concentrations
[9] = target: T2, rat MCT1 (Rattus norvegicus, UniProt P53987); experiment: flow cytometry binding to PBMCs, rat
T2 construct: endogenous in cells; host or cells: rat PBMCs
T2 sequence (P53987 1-494): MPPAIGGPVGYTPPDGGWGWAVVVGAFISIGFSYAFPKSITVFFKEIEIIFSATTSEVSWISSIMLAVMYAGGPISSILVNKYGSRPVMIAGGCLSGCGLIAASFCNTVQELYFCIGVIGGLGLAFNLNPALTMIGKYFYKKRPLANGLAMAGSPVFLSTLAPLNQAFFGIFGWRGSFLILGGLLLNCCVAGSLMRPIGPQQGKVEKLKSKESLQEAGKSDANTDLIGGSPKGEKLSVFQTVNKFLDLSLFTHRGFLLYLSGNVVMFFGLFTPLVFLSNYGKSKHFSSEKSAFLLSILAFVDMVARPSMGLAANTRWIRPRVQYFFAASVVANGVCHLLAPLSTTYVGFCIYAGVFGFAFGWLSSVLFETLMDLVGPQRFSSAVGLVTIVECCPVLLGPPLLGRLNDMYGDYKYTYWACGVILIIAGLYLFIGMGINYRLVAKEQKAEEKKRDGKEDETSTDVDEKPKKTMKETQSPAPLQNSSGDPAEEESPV
Text: as §2, §3

[10] = target: T3, MCT1 transport of lactate (Homo sapiens, UniProt P53985); experiment: lactate FLIPR assay; assay type: cell-based; details: activated T cells; FLIPR Tetra, BCECF; read-out: Kd for block of lactate transport
T3 construct: endogenous in cells
T3 sequence (P53985 1-500): T1 sequence (P53985 1-500)
Text: Effects on lactate transport.
Inhibition of lactate transport.

[11] = test system: human T cells; experiment: metabolomics of treated T cells; assay type: cell-based; details: preliminary
[12] = PK in cynos; assay type: in vivo, cynomolgus monkey; details: preliminary PK data
[13] = repeated dosing safety in cynomolgus monkeys; assay type: in vivo, cynomolgus monkey
Text: In order to further corroborate the safety and efficacy of anti-MCT1 antibodies for human therapy we administered dosages of 50 mpk of anti-human MCT1 antibodies to cynomolgus monkeys. As disclosed in this example and corroborated by the figure referenced herein no toxicity was observed after 30 days.
As shown in FIG. 23 cynomolgus red blood cells (RBCs) express high levels of MCT1. Based thereon we tested the effects of antagonistic anti-MCT1 antibodies in cyno monkeys and in particular looked at any effects on RBCs after anti-MCT1 antibody dosing. Also, we determined whether cynos could tolerate a therapeutic effective dosage of the antibody.

[14] = target: T4, MCT1 on the surface of human PBMCs (Homo sapiens, UniProt P53985); experiment: flow cytometry binding to PBMCs, human
T4 construct: endogenous in cells; host or cells: human PBMCs (unstimulated and stimulated)
T4 sequence (P53985 1-500): T1 sequence (P53985 1-500)
Text: as §2, §3

[15] = target: T5, MCT1 on T cells (Homo sapiens, UniProt P53985); experiment: staining of naive and activated T cells; assay type: binding
T5 construct: endogenous in cells
T5 sequence (P53985 1-500): T1 sequence (P53985 1-500)
Text: The only staining in FIG. 13A corresponds to nucleus staining, confirming the presence of the naïve T cells.
MCT1 Ab1 binding to activated T cells. […] This binding confirms the expression data presented in FIG. 2 and confirms the prediction based on mRNA analysis.

[16] = test system: T cell proliferation; experiment: T cell proliferation assay (CD3/CD28 stimulated); assay type: cell-based, human; details: CD3/CD28 stimulated cultures; read-out: EC50 inhibition of T cell proliferation
Protocol: MCT1, MCT2, MCT4, and BSG (CD147) expression were measured in unstimulated and stimulated leukocytes from two different donors. For the “stimulated” condition, cells were CD3/CD28 activated for 3 days. Stimulated cells were tested for inhibition of proliferation by AZ3965.
Human T cell proliferation.
as §1

IL-15: Recombinant Human IL-15 (carrier-free), Biolegend 570304
ex vivo Tr1 survival [1]: increased ex vivo Tr1 survival in a dose-dependent manner

B1: LM186: chicken anti-human MCT1 antibody; HC/LC SEQ ID NO: 184/189 (antibody)
heavy: AVTLDESGGGLQTPGGGLSLVCKASGFSFSSRGMFWVRQAPGKGLEYVAGIDNDGGYPNYGSAVKGRATISRDNRQSTVRLQLNNLRADDTGTYYCAKGAYGGGWYAASSIDAWGHGTEVIVSS
light: ALTQPSSVSANPGEAVKITCSGGVGQWYGWFQQKAPGSAPVTVIHDNTNRPSDIPSRFSGSKSGSTGTLTITGVQAEDEAVYFCANTYSDGNDAPFGAGTTLTVL
modifications: HC Protein; LC Protein
block of human MCT1 function [2]: block human MCT1 function

B2: MCT1 Ab1: rat anti-human MCT1 monoclonal antibody (rat/human chimera); VH/VL SEQ ID NO: 2/3 (antibody, V domains shown)
VH: QVQLKATGPGLVQPTQTLSITCTVSGFSLTNYHLQWVRQTPGKGLEWMGFIRSSGNTEYNSEFKSRLSISRDTSKNQVFLKMNSLKTDDTGVYYCARNSWYHGTYYSPGYYVMDAWGQGASVTVSS
VL: NIHLTQSPSLLSASVGDRVTLSCKGSQNINNYLAWFQQKFGETPKLLIYNRHNLQTGIPSRFSGSGSGTDYTLTINSLQPEDVATYFCYQYSDGYTFGAGTKLELK
modifications: MCT1 Ab1 (INX310) VH; MCT1 Ab1 (INX310) VL
Kd ([2]; bromopyruvate 150 μM, ATPlite, read-out: Kd for inhibition of bromopyruvate toxicity (protection from cell death)): 1.2 nM
lactate transport in human RBCs [3]: unaffected
inhibition of allogeneic activation [4]: 50-60%
binding to MCT1 on PBMCs [5]: binds to rabbit MCT1
number of CD3+, CD4+ and CD8+ effector T cells ([6]; compared to NSG mice treated with control antibody): significant decrease in the number of CD3^+, CD4^+ and CD8^+ effector T cells
Tr1 cells ([6]; compared to control antibody): increases in Tr1 cells
MABEL in xeno-GVHD ([6]; mouse, in vivo): ~1 mpk
survival, long-term protection and tolerance ([6]; re-challenge at day 42 with PBMC of the same donor): increased survival, long-term protection and tolerance induction
binding to MCT1 on PBMCs [7]: binds to cynomolgus MCT1
proliferation of CD4+ and CD8+ T cells [8]: inhibited the proliferation of CD4^+ and CD8^+ T cells
binding to MCT1 on PBMCs [9]: does not bind to rat MCT1
Kd [10]: 7.6 nM
metabolomics findings in treated T cells [11]: improved generation of ATP and NADH, along with increased oxidative metabolism and viability
dose rate at which the RBC sink is saturated [12]: ≥ 5 mpk
histological findings (heart, muscle, testis and eye, H & E) ([13]; 4 weekly doses at 50 mpk): no adverse histological findings
in-life toxicity ([13]; 30 days, 4 weekly doses at 50 mpk): no significant in-life toxicity
RBC mass after dosing ([13]; cynos, 50 mpk): initial reduction of RBC mass after dosing this resolves after a short time
tolerability of repeated dosing ([13]; cynos, 50 mpk): tolerate repeated dosing
binding to MCT1 on PBMCs [14]: binds to MCT1 on the surface of human PBMCs
staining of activated T cells ([15]; CD3/CD28 activated cells, day 3): stains the surface of CD3/CD28 activated cells on day 3
staining of naive T cells ([15]; naïve cells): does not stain naïve cells
EC50 [16]: 1.3 nM

B3: IL-7: Recombinant Human IL-7 (carrier-free), Biolegend 581904 (protein, UniProt P13232 26-177, looked up)
Interleukin-7: DCDIEGKDGKQYESVLMVSIDQLLDSMKEIGSNCLNNEFNFFKRHICDANKEGMFLFRAARKLRQFLKMNSTGDFDLHLLKVSEGTTILLNCTGQVKGRKPAALGEAQPTKSLEENKSLKEQKKLNDLCFLKRLLQEIKTCWNKILMGTKEH
ex vivo Tr1 survival [1]: increased ex vivo Tr1 survival in a dose-dependent manner

B4: LM183: chicken anti-human MCT1 antibody; HC/LC SEQ ID NO: 164/169 (antibody)
heavy: AVTLDESGGGLQTPGGTLSLVCKASGFDFSNYEMLWVRQAPGKGLEYVAGIGDSASYSAYGVAVKGRATISRDNGQSTLRLQLNGLRAEDTGTYYCTKASEGSYWYYEAGGIDTWGHGTEVIVSS
light: ALTQPSSVSANLGGTVKITCSGGGGSYGWYQQKSPGSAPVTVIYDNDKRPSDIPSRFSGSKSGSTATLTITGVRAEDEAVYYCGSAGNSGAFGAGTTLTVL
modifications: HC Protein; LC Protein
block of human MCT1 function [2]: block human MCT1 function
